Experimental data: PMC5655499, “Peptide array-based screening reveals a large number of proteins interacting with the ankyrin-repeat domain of the zDHHC17 S-acyltransferase” (The Journal of Biological Chemistry, 2017)

T1: His6-tagged AR domain (residues 51–288) of zDHHC17 (human, UniProt Q8IUH5 51-288)
T1 construct: ankyrin-repeat (AR) domain of human zDHHC17 (HIP14), residues 51-288; pET303CT-His plasmid; also called ARzD17-His; ARzD17; source: E. coli BL21(DE3)pLysS, purified; not shown: His6 (after a Leu-Glu linker), C-terminal, kept
T1 sequence (looked up): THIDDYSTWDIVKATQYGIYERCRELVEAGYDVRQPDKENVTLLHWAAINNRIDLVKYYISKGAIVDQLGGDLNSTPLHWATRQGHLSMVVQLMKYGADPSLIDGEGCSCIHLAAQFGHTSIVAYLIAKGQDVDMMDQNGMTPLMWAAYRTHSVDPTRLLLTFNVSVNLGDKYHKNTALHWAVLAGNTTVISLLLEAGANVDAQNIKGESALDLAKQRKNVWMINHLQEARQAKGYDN


Target: T1, His6-tagged AR domain (residues 51–288) …
Experiment: peptide or protein array; far-Western on an array of 109 SPOT-synthesised 12-mer peptides on cellulose membrane; ARzD17-His (51–288) 500 nM in PBS-T overnight at 4 °C; detected with His6 tag antibody; signals normalised to the highest (1000), values <10 non-binders
Conditions: both partners purified

| binding result | Binder |
| --- | --- |
| binds | HQYPLRQPQFRL (peptide, UniProt Q08499 39-50, looked up, 12-mer of human PDE4D with Pro-46 at position 7 and YP at positions 2-3; source: synthetic peptide, SPOT synthesis on cellulose membrane) [PDE4D (Pro-46) zDABM 12-mer peptide] |
| binds | PRSKIAQPVRSF (peptide, UniProt Q8ND83 534-545, looked up, also called SLAI1; SLAIN motif-containing protein 1; source: synthetic peptide, SPOT synthesis on cellulose membrane) [SLAIN1 (Pro-541) zDABM 12-mer peptide] |
